Measurements published in patent US20120027773A1 (AVEO PHARMACEUTICALS, published 2012).

B1: Sh29B06-9 (antibody, human IgG1, kappa, V domains shown)
VH: EVQLQESGPSLVKPSQTLSLTCSVTGDSITSGYWNWIRKFPGNKLEYMGYISYSGKTYYNPSLKSRISITRDTSKNHYYLQLISVTAEDTATYYCARSKYDYAMDYWGQGTSVTVSS
VL: DIVMTQSPLSLPVTPGEPASISCRASEIVDNFGISFMNWYLQKPGQSPQLLIYAASNQGSGVPDRFSGSGSGTDFTLKISRVEAEDVGVYYCQQSKEVPPTFGGGTKVEIKR
notes: Chimeric 29B06 Heavy IgG1 + Sh29B06 Kv2-28 Kappa
B2: Sh29B06-78 (antibody, human IgG1, kappa, V domains shown)
VH: QVQLQESGPGLVKPSETLSLTCTVSGGSISSGYWNWIRKPPGKKLEYIGYISYSGKTYYNPSLKSRVTISRDTSKNQFSLKLSSVTAADTAVYYCARSKYDYAMDYWGQGTLVTVSS
VL: DIVMTQSPLSLPVTPGEPASISCRASEIVDNFGISFMNWYLQKPGQSPQLLIYAASNQGSGVPDRFSGSGSGTDFTLKISRVEAEDVGVYYCQQSKEVPPTFGGGTKVEIKR
notes: Humanized, human IgG1/kappa: Hu29B06 Hv4-59 D27G T30S M48I I67V Y78F IgG1 + Sh29B06 Kv2-28 Kappa
B3: Sh29B06-23 (antibody, human IgG1, kappa, V domains shown)
VH: QVQLQESGPGLVKPSETLSLTCTVSGDSITSGYWNWIRKPPGKKLEYMGYISYSGKTYYNPSLKSRITISRDTSKNQYSLKLSSVTAADTAVYYCARSKYDYAMDYWGQGTLVTVSS
VL: DIVMTQSPLSLPVTPGEPASISCRASEIVDNFGISFMNWYLQKPGQSPQLLIYAASNQGSGVPDRFSGSGSGTDFTLKISRVEAEDVGVYYCQQSKEVPPTFGGGTKVEIKR
notes: Humanized, human IgG1/kappa: Hu29B06 Hv4-59 IgG1 (CDR graft with back mutations) + Sh29B06 Kv2-28 Kappa
B4: RON8 (antibody, V domains shown)
VH: EVQLVESGGGLVQPGGSLRLSCAASGFTFSSYLMTWVRQAPGKGLEWVANIKQDGSEKYYVDSVKGRFTISRDNAKNSLNLQMNSLRAEDTAVYYCTRDGYSSGRHYGMDVWGQGTTVIVSS
VL: EIVLTQSPATLSLSPGERATLSCRASQSVSRYLAWYQQKPGQAPRLLIYDASNRATGIPARFSGSGSGTDFTLTISSLEPEDFAVYYCQQRSNWPRTFGQGTKVEIKR
B5: Sh07F01-2 (antibody, human IgG1, kappa, V domains shown)
VH: EVKLLESGGGLVQPGGSLKLSCAASGFDFSRHWMSWVRLAPGKGLEWIAEINPDSRTINYTPSLKEKFIISRDNAKNSLFLQMNRVRSEDTALYYCARRVRIHYYGAMDSWGQGTSVTVSS
VL: DIVLTQSQKIVSTSVGARVSVTCKASQNVGSSLVWYQQKPGQSPKTLIYSASFRYSGVPDRFTGSGSGTDFTLTISNVQSEDLADYFCQQYNNYPLTFGAGTKLELKR
notes: also called Chimeric 07F01 C102S
B6: Sh07F01-62 (antibody, human IgG1, kappa, V domains shown)
VH: EVQLVESGGGLVQPGGSLRLSCAASGFTFSRHWMSWVRQAPGKGLEWVSEINPDSRTINYAPSVKGRFTISRDNAKNSLYLQMNSLRAEDTAVYYCARRVRIHYYGAMDSWGQGTTVTVSS
VL: DIQLTQSQSFVSTSVGDRVTVTCRASQNVGSSLVWYQQKPGKSPKTLIYSASFLYSGVPSRFSGSGSGTEFTLTISSVQPEDFADYFCQQYNNYPLTFGGGTKVEIKR
notes: Humanized, human IgG1/kappa: Sh07F01 Hv3-48 D28T T60A L63V E65G IgG1 + HE L 07F01 Kv1-9 Kappa
B7: Sh07F01-83 (antibody, human IgG1, kappa, V domains shown)
VH: EVQLVESGGGLVQPGGSLRLSCAASGFTFSRHWMSWVRQAPGKGLEWVSEINPDSRTINYAPSVKGRFTISRDNAKNSLYLQMNSLRAEDTAVYYCARRVRIHYYGAMDSWGQGTTVTVSS
VL: DIQLTQSPSFLSASVGDRVTITCRASQNVGSSLVWYQQKPGKAPKTLIYSASFLYSGVPSRFSGSGSGTEFTLTISSLQPEDFATYYCQQYNNYPLTFGGGTKVEIKR
notes: Humanized, human IgG1/kappa: Sh07F01 Hv3-48 D28T T60A L63V E65G IgG1 + Sh07F01 Kv1-9 F1 Kappa
B8: Sh07F01-69 (antibody, human IgG1, kappa, V domains shown)
VH: EVQLVESGGGLVQPGGSLRLSCAASGFDFSRHWMSWVRQAPGKGLEWVSEINPDSRTINYTPSLKERFTISRDNAKNSLYLQMNSLRAEDTAVYYCARRVRIHYYGAMDSWGQGTTVTVSS
VL: DIQLTQSPSFLSASVGDRVTITCRASQNVGSSLVWYQQKPGKAPKTLIYSASFLYSGVPSRFSGSGSGTEFTLTISSLQPEDFATYYCQQYNNYPLTFGGGTKVEIKR
notes: Humanized, human IgG1/kappa: Sh07F01 Hv3-48 IgG1 + Sh07F01 Kv1-9 F1 Kappa
B9: Sh07F01-43 (antibody, human IgG1, kappa, V domains shown)
VH: EVQLVESGGGLVQPGGSLRLSCAASGFDFSRHWMSWVRQAPGKGLEWVSEINPDSRTINYTPSLKERFTISRDNAKNSLYLQMNSLRAEDTAVYYCARRVRIHYYGAMDSWGQGTTVTVSS
VL: DIQLTQSQSFVSTSVGDRVTVTCRASQNVGSSLVWYQQKPGKSPKTLIYSASFLYSGVPSRFSGSGSGTEFTLTISSVQPEDFADYFCQQYNNYPLTFGGGTKVEIKR
notes: Humanized, human IgG1/kappa: Sh07F01 Hv3-48 IgG1 + HE L 07F01 Kv1-9 Kappa

Legend:
[1] = target: T1, recombinant human RON SEMA and PSI domains (human, UniProt Q04912 25-571); test: SPR, Ab captured on anti-human IgG Fc, 37 C, screening
T1 construct: domain: SEMA+PSI; Commercial protein (R&D Systems); also called rhRON SEMA+PSI; hRON SEMA+PSI
Description: (§1) Goat anti-human IgG Fc (Jackson ImmunoResearch, Catalog No. 109-005-098) was immobilized on carboxymethylated dextran CM4 sensor chips (Biacore) by amine coupling (Biacore) using a standard coupling protocol according to the vendor's instructions. The analyses were performed at 37° C. using PBS (Invitrogen) containing 0.05% surfactant P20 (Biacore) as running buffer.
(§2) The antibodies were captured in individual flow cells at a flow rate of 60 μl/minute. Injection time was varied for each antibody to yield an Rₘₐₓ between 30 and 60 RU. Buffer or rhRON SEMA+PSI diluted in running buffer was injected sequentially over a reference surface (no antibody captured) and the active surface (antibody to be tested) for 300 seconds at 60 μl/minute. The dissociation phase was monitored for up to 1200 seconds. The surface was then regenerated with two 60 second injections of Glycine pH 2.25 (made from Glycine pH 2.0 (Biacore) and pH 2.5 (Biacore)) at 60 μl/minute. For the initial screening, only one or two concentrations of rhRON SEMA+PSI were tested, typically 10.0 and 2.5 nM (results are summarized in Table 20).
Kinetic parameters were determined using the kinetic function of the BIAevaluation software (Biacore) with double reference subtraction. Kinetic parameters for each antibody, kₐ (association rate constant), kd (dissociation rate constant) and KD (equilibrium dissociation constant) were determined. Certain monoclonal antibodies were screened using cell culture media supernatant containing secreted antibody, and kinetic values of the monoclonal antibodies on rhRON SEMA+PSI at 37° C. are summarized in Table 20.

[2] = target: T1, recombinant human RON SEMA and PSI …; test: SPR, purified Ab captured on anti-human IgG Fc, 25 C
[3] = target: T2, delta 160 RON variant (cell surface) (human, UniProt Q04912 25-1400); test: FACS titration on HT29 cells, 4 C
T2 construct: whole, on cells; Splice variant; also called delta 160 variant
Description: (§3) Binding to cell surface human wild-type RON and the delta 160 RON variant by antibodies 07F01, Sh07F01-62, 29B06, and Sh29B06-78 was measured at 4° C., using Fluorescence Activated Cell Sorting (FACS). PC3 cells expressing the human wild-type RON, and HT29 cells expressing the delta 160 variant, were harvested using cell dissociation buffer (Invitrogen), washed twice with FACS buffer (PBS with 0.5% BSA), and treated 10 minutes with Cyto Q Antibody diluent and FC receptor block (Innovex Biosciences, Richmond, Calif.). Purified antibodies were diluted in FACS buffer over a concentration range from 0.01 nM to 25 nM. Cells were incubated with 100 μl of antibody for one hour, washed with FACS buffer three times, and incubated for 45 minutes with goat anti-mouse PE-conjugated antibody (Jackson ImmunoResearch Laboratories, West Grove, Pa.) or donkey anti-human PE-conjugated antibody (Jackson ImmunoResearch Laboratories, West Grove, Pa.). Cells were washed three times with FACS buffer, resuspended in 300 μl of FACS buffer, and analyzed using a Beckman Coulter Cytomics FC 500 FACS instrument. All four antibodies were compared in the same experiment.

[4] = target: T1, recombinant human RON SEMA and PSI …; test: SPR, Ab captured on anti-human IgG Fc, 37 C
[5] = target: T1, recombinant human RON SEMA and PSI …; test: SPR, purified Ab captured on anti-human IgG Fc, 37 C
Description: as §1, §2
The binding affinities and kinetics of certain purified monoclonal antibodies were also determined. To further characterize certain antibodies, the surface plasmon resonance experiments described above were conducted using concentrations of rhRON SEMA+PSI between 0.3125 nM and 10.0 nM (a 2-fold serial dilution).

[6] = target: T3, human wild-type RON (cell surface) (human, UniProt Q04912 25-1400); test: FACS titration on PC3 cells, 4 C
T3 construct: whole, on cells; also called Human RON; wt RON
Description: as §3

[7] = target: T1, recombinant human RON SEMA and PSI …; test: SPR, Ab captured on anti-human IgG Fc, 25 C

Binder | Kd [1] [nM] | koff [1] [s⁻¹] | kon [1] [M⁻¹ s⁻¹] | Kd [2] [nM] | koff [2] [s⁻¹] | kon [2] [M⁻¹ s⁻¹] | Kd [3] [nM] | Kd [4] [nM] | koff [4] [s⁻¹] | kon [4] [M⁻¹ s⁻¹] | Kd [5] [nM] | koff [5] [s⁻¹] | kon [5] [M⁻¹ s⁻¹] | Kd [6] [nM] | Kd [7] [nM] | koff [7] [s⁻¹] | kon [7] [M⁻¹ s⁻¹]
B1 | 0.26 | 0.00022 | 870000 | – | – | – | – | – | – | – | – | – | – | – | – | – | –
B2 | – | – | – | 0.052 | 3.9e-05 | 750000 | 0.239 | 0.11 | 0.0001 | 960000 | 0.11 | 0.00011 | 1e+06 | 0.09 | 0.048 | 3.1e-05 | 680000
B3 | 0.64 | 0.00048 | 780000 | 0.14 | 9.5e-05 | 670000 | – | – | – | – | 0.46 | 0.00033 | 730000 | – | – | – | –
B4 | – | – | – | – | – | – | – | 0.92 | 0.0025 | 7e+06 | – | – | – | – | 0.67 | 0.00068 | 1.2e+06
B5 | 0.38 | 0.00073 | 2e+06 | 0.082 | 9.8e-05 | 1.2e+06 | – | – | – | – | 0.31 | 0.00053 | 1.7e+06 | – | – | – | –
B6 | 0.36 | 0.0014 | 3.9e+06 | 0.085 | 0.00016 | 1.8e+06 | 0.118 | 0.25 | 0.00069 | 2.8e+06 | 0.25 | 0.00069 | 2.8e+06 | 0.043 | 0.085 | 0.00016 | 1.8e+06
B7 | 0.54 | 0.0014 | 2.6e+06 | 0.11 | 0.00018 | 1.6e+06 | – | – | – | – | 0.24 | 0.00079 | 3.2e+06 | – | – | – | –
B8 | 0.56 | 0.0012 | 2.3e+06 | 0.12 | 0.00014 | 1.1e+06 | – | – | – | – | 0.3 | 0.00078 | 2.5e+06 | – | – | – | –
B9 | – | – | – | 0.09 | 0.00011 | 1.2e+06 | – | – | – | – | 0.3 | 0.00056 | 1.8e+06 | – | – | – | –
